Source: publication PMC8546555, “Colicin-Mediated Transport of DNA through the Iron Transporter FepA” (mBio, 2021)

Biological target: T1, FepA overexpressed from pBAD/Myc-HisB (E. coli, UniProt P05825 23-746)
T1 construct: FepA, outer membrane ferric enterobactin transporter of E. coli; source: E. coli BW25113 ΔFepA (JW5086-3) or BL21(DE3), pBAD/Myc-HisB, overexpressed; on live cells, or in a detergent-extracted OM protein fraction
T1 sequence: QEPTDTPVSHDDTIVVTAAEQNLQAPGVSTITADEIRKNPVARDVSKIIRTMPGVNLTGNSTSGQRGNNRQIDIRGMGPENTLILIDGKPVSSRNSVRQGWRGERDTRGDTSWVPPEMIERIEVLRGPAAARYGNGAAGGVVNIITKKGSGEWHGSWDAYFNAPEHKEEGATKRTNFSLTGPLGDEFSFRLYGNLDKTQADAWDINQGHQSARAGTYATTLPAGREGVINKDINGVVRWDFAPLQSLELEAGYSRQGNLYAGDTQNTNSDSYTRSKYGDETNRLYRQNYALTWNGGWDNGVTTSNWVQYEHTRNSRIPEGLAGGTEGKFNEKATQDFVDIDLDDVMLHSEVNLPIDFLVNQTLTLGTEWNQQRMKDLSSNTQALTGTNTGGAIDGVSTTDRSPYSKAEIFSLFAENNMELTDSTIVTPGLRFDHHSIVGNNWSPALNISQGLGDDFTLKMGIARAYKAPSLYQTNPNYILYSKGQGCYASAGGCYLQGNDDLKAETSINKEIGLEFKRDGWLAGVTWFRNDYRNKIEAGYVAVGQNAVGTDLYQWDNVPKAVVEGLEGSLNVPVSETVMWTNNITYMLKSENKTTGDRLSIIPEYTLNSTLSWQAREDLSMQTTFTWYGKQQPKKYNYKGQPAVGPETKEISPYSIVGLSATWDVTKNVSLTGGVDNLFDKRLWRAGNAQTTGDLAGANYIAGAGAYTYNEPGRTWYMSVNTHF
Test: native MS; 60 mg ColB-RT added to a 5-liter culture of BW25113(ΔFepA) cells overexpressing FepA; complex detergent extracted, purified by nickel affinity and size exclusion chromatography; 100 mM ammonium acetate, 1% β-OG, pH 6.9
Details: one partner purified

B1: ColB-RT (341 aa) (domain or fragment)
chain: MSDNEGSVPTEGIDYGDTMVVWPSTGRIPGGDVKPGGSSGLAPSMPPGWGDYSPQGIALVQSVLFPGIIRRIILDKELEEGDWSGWSVSVHSPWGNEKVSAARTVLENGLRGGLPEPSRPAAVSFARLEPASGNEQKIIRLMVTQQLEQVTDIPASQLPAAGNNVPVKYRLTDLMQNGTQYMAIIGGIPMTVPVVDAVPVPDRSRPGTNIKDVYSAPVSPNLPDLVLSVGQMNTPVRSNPEIQEDGVISETGNYVEAGYTMSSNNHDVIVRFPEGSGVSPLYISAVEILDSNSLSQRQEAENNAKDDFRVKKEQENDEKTVLTKTSEVIISVGDKVGEYLG
notes: not shown: His6, C-terminal, kept
stoichiometry N: 1
